From publication PMC10397247

Legend:
Experiment in all cases: two-hybrid library CCmax;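 also: natural log of median RNA to DNA barcode read ratio; higher means stronger binding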
[1] = target: T1, 4H2198-AA; details: mean of both orientations
T1 chain: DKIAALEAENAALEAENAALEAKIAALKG

[2] = target: T2, 4H1310-AA
T2 chain: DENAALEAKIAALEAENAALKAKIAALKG

[3] = target: T3, 4H1845-AA; details: mean of both orientations
T3 chain: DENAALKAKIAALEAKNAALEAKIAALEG

[4] = target: T4, 4H3162-AA; details: mean of both orientations
T4 chain: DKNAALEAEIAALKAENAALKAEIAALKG

[5] = target: T5, 4H3413-AA; details: mean of both orientations
T5 chain: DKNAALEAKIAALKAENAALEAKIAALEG

[6] = target: T6, 4H2620-AA; details: mean of both orientations
T6 chain: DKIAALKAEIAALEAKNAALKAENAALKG

[7] = target: T7, 4H171-AA; details: mean of both orientations
T7 chain: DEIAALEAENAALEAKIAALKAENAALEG

[8] = target: T8, 4H2109-AA; details: mean of both orientations
T8 chain: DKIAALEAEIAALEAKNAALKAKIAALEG

[9] = target: T9, 4H1842-AA; details: mean of both orientations
T9 chain: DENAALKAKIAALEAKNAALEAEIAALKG

[10] = target: T10, 4H1579-AA; details: mean of both orientations
T10 chain: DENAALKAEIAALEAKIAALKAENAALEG

[11] = target: T11, 4H3133-AA; details: mean of both orientations
T11 chain: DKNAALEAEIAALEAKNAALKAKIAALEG

[12] = target: T12, 4H1385-AA; details: mean of both orientations
T12 chain: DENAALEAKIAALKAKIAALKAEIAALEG

interaction score [1]: -0.878
interaction score [2]: 1.62
interaction score [3]: -0.784
interaction score [4]: -0.508
interaction score [5]: 1.51
interaction score [6]: -1.03
interaction score [7]: -0.8
interaction score [8]: 0.409
interaction score [9]: 0.334
interaction score [10]: -1.2
interaction score [11]: 0.253
interaction score [12]: -1.04
Binder: DENAALEAKIAALEAENAALKAKIAALKG [4H1310-AA]
